Test results reported in paper PMC10397247.

Tests used:
4H3010-bA = target: T1, 4H3010-bA; test: two-hybrid library CCNG1;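 also: natural log of median RNA to DNA barcode read ratio; higher means stronger binding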
T1 chain: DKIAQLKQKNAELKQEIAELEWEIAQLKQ

4H2702-bA = target: T2, 4H2702-bA; test: two-hybrid library CCNG1;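 also: natural log of median RNA to DNA barcode read ratio; higher means stronger binding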
T2 chain: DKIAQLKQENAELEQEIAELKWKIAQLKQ

4H3112-bH = target: T3, 4H3112-bH; test: two-hybrid library CCNG1;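 also: natural log of median RNA to DNA barcode read ratio; higher means stronger binding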
T3 chain: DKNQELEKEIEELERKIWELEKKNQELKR

4H457-bA = target: T4, 4H457-bA; test: two-hybrid library CCNG1;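 also: natural log of median RNA to DNA barcode read ratio; higher means stronger binding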
T4 chain: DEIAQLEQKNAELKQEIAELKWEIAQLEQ

4H780-bA = target: T5, 4H780-bA; test: two-hybrid library CCNG1;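 also: natural log of median RNA to DNA barcode read ratio; higher means stronger binding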
T5 chain: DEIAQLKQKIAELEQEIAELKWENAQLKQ

4H683-bA = target: T6, 4H683-bA; test: two-hybrid library CCNG1;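 also: natural log of median RNA to DNA barcode read ratio; higher means stronger binding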
T6 chain: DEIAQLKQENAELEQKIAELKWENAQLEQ

4H3427-bA = target: T7, 4H3427-bA; test: two-hybrid library CCNG1
T7 chain: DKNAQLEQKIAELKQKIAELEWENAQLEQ

4H3926-bA = target: T8, 4H3926-bA; test: two-hybrid library CCNG1
T8 chain: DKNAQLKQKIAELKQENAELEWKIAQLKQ

4H1831-bA = target: T9, 4H1831-bA; test: two-hybrid library CCNG1
T9 chain: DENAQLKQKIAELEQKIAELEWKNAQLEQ

4H3112-bA = target: T10, 4H3112-bA; test: two-hybrid library CCNG1
T10 chain: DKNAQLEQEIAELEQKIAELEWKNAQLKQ

4H346-bA = target: T11, 4H346-bA; test: two-hybrid library CCNG1
T11 chain: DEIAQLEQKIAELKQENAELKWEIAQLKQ

4H2586-bA = target: T12, 4H2586-bA; test: two-hybrid library CCNG1
T12 chain: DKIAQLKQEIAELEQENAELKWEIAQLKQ

4H2627-bA = target: T13, 4H2627-bA; test: two-hybrid library CCNG1
T13 chain: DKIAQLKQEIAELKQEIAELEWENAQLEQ

4H918-bA = target: T14, 4H918-bA; test: two-hybrid library CCNG1
T14 chain: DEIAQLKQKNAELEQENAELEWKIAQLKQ

4H2697-bA = target: T15, 4H2697-bA; test: two-hybrid library CCNG1
T15 chain: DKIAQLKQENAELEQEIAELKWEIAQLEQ

4H4073-bA = target: T16, 4H4073-bA; test: two-hybrid library CCNG1
T16 chain: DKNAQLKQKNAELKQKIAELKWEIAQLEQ

4H797-bA = target: T17, 4H797-bA; test: two-hybrid library CCNG1
T17 chain: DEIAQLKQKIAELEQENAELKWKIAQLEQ

4H575-bA = target: T18, 4H575-bA; test: two-hybrid library CCNG1
T18 chain: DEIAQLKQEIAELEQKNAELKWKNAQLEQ

4H953-bA = target: T19, 4H953-bA; test: two-hybrid library CCNG1
T19 chain: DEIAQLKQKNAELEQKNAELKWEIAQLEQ

4H754-bA = target: T20, 4H754-bA; test: two-hybrid library CCNG1
T20 chain: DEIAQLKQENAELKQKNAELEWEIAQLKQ

4H855-bA = target: T21, 4H855-bA; test: two-hybrid library CCNG1
T21 chain: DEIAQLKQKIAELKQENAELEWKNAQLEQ

4H968-bA = target: T22, 4H968-bA; test: two-hybrid library CCNG1
T22 chain: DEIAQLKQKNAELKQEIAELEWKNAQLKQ

4H2673-bA = target: T23, 4H2673-bA; test: two-hybrid library CCNG1
T23 chain: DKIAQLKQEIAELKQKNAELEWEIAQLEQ

4H376-AA = target: T24, 4H376-AA; test: two-hybrid library CCmax; settings: mean of both orientations
T24 chain: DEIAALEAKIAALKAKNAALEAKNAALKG

4H3001-AA = target: T25, 4H3001-AA; test: two-hybrid library CCmax; settings: mean of both orientations
T25 chain: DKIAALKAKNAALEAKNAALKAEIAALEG

4H688-AA = target: T26, 4H688-AA; test: two-hybrid library CCmax; settings: mean of both orientations
T26 chain: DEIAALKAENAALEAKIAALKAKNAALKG

4H3340-AA = target: T27, 4H3340-AA; test: two-hybrid library CCmax
T27 chain: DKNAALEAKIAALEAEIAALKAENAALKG

4H3493-AA = target: T28, 4H3493-AA; test: two-hybrid library CCmax; settings: mean of both orientations
T28 chain: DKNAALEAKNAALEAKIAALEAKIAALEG

4H2592-AA = target: T29, 4H2592-AA; test: two-hybrid library CCmax
T29 chain: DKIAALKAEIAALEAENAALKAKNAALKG

4H2504-AA = target: T30, 4H2504-AA; test: two-hybrid library CCmax
T30 chain: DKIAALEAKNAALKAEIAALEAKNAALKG

4H963-AA = target: T31, 4H963-AA; test: two-hybrid library CCmax; settings: mean of both orientations
T31 chain: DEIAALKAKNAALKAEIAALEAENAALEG

4H3381-AA = target: T32, 4H3381-AA; test: two-hybrid library CCmax; settings: mean of both orientations
T32 chain: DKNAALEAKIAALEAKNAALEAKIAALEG

4H2611-AA = target: T33, 4H2611-AA; test: two-hybrid library CCmax; settings: mean of both orientations
T33 chain: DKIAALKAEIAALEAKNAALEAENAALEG

4H406-AA = target: T34, 4H406-AA; test: two-hybrid library CCmax; settings: mean of both orientations
T34 chain: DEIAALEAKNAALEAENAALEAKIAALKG

4H347-AA = target: T35, 4H347-AA; test: two-hybrid library CCmax; settings: mean of both orientations
T35 chain: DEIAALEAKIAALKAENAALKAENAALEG

4H2774-AA = target: T36, 4H2774-AA; test: two-hybrid library CCmax; settings: mean of both orientations
T36 chain: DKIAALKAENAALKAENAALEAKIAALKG

P7A-bA = target: T37, P7A-bA; test: two-hybrid library CCNG1
T37 chain: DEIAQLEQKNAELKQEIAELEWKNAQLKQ

P4A-bA = target: T38, P4A-bA; test: two-hybrid library CCNG1
T38 chain: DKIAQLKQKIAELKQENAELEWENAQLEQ

P9A-bA = target: T39, P9A-bA; test: two-hybrid library CCNG1
T39 chain: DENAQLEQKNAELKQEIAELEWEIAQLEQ

P8A-bA = target: T40, P8A-bA; test: two-hybrid library CCNG1
T40 chain: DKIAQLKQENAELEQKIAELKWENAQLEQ

P5A-bA = target: T41, P5A-bA; test: two-hybrid library CCNG1
T41 chain: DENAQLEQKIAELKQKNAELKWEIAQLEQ

P3A-bA = target: T42, P3A-bA; test: two-hybrid library CCNG1
T42 chain: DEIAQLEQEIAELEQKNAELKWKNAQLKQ

P6A-bA = target: T43, P6A-bA; test: two-hybrid library CCNG1
T43 chain: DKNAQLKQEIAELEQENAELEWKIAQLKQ

4H72-bA = target: T44, 4H72-bA; test: two-hybrid library CCNG1
T44 chain: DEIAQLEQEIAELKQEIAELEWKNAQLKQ

4H454-bA = target: T45, 4H454-bA; test: two-hybrid library CCNG1
T45 chain: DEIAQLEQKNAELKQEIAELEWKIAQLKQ

4H568-bA = target: T46, 4H568-bA; test: two-hybrid library CCNG1
T46 chain: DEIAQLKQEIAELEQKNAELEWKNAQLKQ

4H3843-bA = target: T47, 4H3843-bA; test: two-hybrid library CCNG1
T47 chain: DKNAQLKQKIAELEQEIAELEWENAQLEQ

4H3354-bA = target: T48, 4H3354-bA; test: two-hybrid library CCNG1
T48 chain: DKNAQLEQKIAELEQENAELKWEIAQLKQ

4H3855-bA = target: T49, 4H3855-bA; test: two-hybrid library CCNG1
T49 chain: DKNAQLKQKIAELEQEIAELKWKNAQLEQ

4H908-bA = target: T50, 4H908-bA; test: two-hybrid library CCNG1
T50 chain: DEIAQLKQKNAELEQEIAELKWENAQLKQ

4H967-bA = target: T51, 4H967-bA; test: two-hybrid library CCNG1
T51 chain: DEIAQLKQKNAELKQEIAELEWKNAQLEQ

4H687-bA = target: T52, 4H687-bA; test: two-hybrid library CCNG1
T52 chain: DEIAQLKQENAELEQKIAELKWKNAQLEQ

4H883-bA = target: T53, 4H883-bA; test: two-hybrid library CCNG1
T53 chain: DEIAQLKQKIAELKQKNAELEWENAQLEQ

4H717-bA = target: T54, 4H717-bA; test: two-hybrid library CCNG1
T54 chain: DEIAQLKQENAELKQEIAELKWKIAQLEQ

4H331-bA = target: T55, 4H331-bA; test: two-hybrid library CCNG1
T55 chain: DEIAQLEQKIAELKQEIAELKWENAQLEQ

4H607-bA = target: T56, 4H607-bA; test: two-hybrid library CCNG1
T56 chain: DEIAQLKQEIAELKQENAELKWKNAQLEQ

4H3185-bA = target: T57, 4H3185-bA; test: two-hybrid library CCNG1
T57 chain: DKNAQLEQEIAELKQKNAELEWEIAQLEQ

4H4001-bA = target: T58, 4H4001-bA; test: two-hybrid library CCNG1
T58 chain: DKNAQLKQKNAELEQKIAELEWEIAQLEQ

4H3782-bA = target: T59, 4H3782-bA; test: two-hybrid library CCNG1
T59 chain: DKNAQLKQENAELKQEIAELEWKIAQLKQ

4H338-bA = target: T60, 4H338-bA; test: two-hybrid library CCNG1
T60 chain: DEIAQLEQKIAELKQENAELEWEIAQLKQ

B1: 4H1831-bA (peptide)
chain: DENAQLKQKIAELEQKIAELEWKNAQLEQ
interaction score (4H3010-bA): 0.376 | interaction score (4H2702-bA): -0.589 | interaction score (4H3112-bH): -0.386 | interaction score (4H457-bA): -0.519 | interaction score (4H780-bA): -1.1 | interaction score (4H683-bA): -1.5 | interaction score (4H3427-bA): 0.113 | interaction score (4H3926-bA): -0.904 | interaction score (4H1831-bA): 0.937 | interaction score (4H3112-bA): 0.716 | interaction score (4H346-bA): -0.307 | interaction score (4H2586-bA): -0.446 | interaction score (4H2627-bA): 1.11 | interaction score (4H918-bA): -0.817 | interaction score (4H2697-bA): -1.55 | interaction score (4H4073-bA): -0.475 | interaction score (4H797-bA): -0.44 | interaction score (4H575-bA): -0.581 | interaction score (4H953-bA): -0.824 | interaction score (4H754-bA): -0.649 | interaction score (4H855-bA): 0.246 | interaction score (4H968-bA): -0.46 | interaction score (4H2673-bA): 0.133

B2: 4H2504-AA (peptide)
chain: DKIAALEAKNAALKAEIAALEAKNAALKG
interaction score (4H376-AA): -1.78 | interaction score (4H3001-AA): -1.38 | interaction score (4H688-AA): 0.978 | interaction score (4H3340-AA): -1.51 | interaction score (4H3493-AA): -1.14 | interaction score (4H2592-AA): -1.07 | interaction score (4H2504-AA): -0.729 | interaction score (4H963-AA): -0.737 | interaction score (4H3381-AA): -0.947 | interaction score (4H2611-AA): -2.59 | interaction score (4H406-AA): 0.644 | interaction score (4H347-AA): -1.77 | interaction score (4H2774-AA): -1.42

B3: P2A-bA (peptide)
chain: DKIAQLKQKNAELKQKNAELKWKIAQLKQ
interaction score (P7A-bA): -0.916 | interaction score (P4A-bA): 0.0163 | interaction score (P9A-bA): 0.702 | interaction score (P8A-bA): -0.64 | interaction score (P5A-bA): -0.638 | interaction score (P3A-bA): -0.686 | interaction score (P6A-bA): 0.426

B4: 4H3185-bA (peptide)
chain: DKNAQLEQEIAELKQKNAELEWEIAQLEQ
interaction score (4H72-bA): -1.82 | interaction score (4H454-bA): -1.66 | interaction score (4H568-bA): -1.72 | interaction score (4H3843-bA): -0.572 | interaction score (4H3427-bA): -0.483 | interaction score (4H3354-bA): -1.03 | interaction score (4H3855-bA): -0.974 | interaction score (4H908-bA): -1.86 | interaction score (4H967-bA): -0.96 | interaction score (4H687-bA): -0.744 | interaction score (4H918-bA): -1.76 | interaction score (4H883-bA): -1.49 | interaction score (4H717-bA): -1.46 | interaction score (4H331-bA): -1.49 | interaction score (4H607-bA): -1.07 | interaction score (4H3185-bA): -0.903 | interaction score (4H4001-bA): -0.835 | interaction score (4H3782-bA): -1.06 | interaction score (4H797-bA): -1.99 | interaction score (4H953-bA): -1.76 | interaction score (4H754-bA): -0.86 | interaction score (4H338-bA): -1.39 | interaction score (P3A-bA): -0.564
